The results in this text go back to publication doi:10.1101/2022.06.23.497280 (bioRxiv, 2022).

The series “SEC” concerns the molecule itself. Kind of series: SEC. (SEC sorts molecules by how far they enter the pores of the column.)
A further series has as its target T1, HU-B (UniProt P0ACF4 1-90, F47W).
T1 sequence: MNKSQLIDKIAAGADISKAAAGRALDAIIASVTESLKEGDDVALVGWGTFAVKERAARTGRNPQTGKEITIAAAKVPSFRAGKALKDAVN
Put plainly: EMSA.

The target in a further series is HU-A (UniProt P0ACF0 1-90, F79W). Kind of series: EMSA. (In general: A gel shift assay detects complexes by their altered migration in electrophoresis.)

Broadly, the stoichiometry N is the number of molecules, sites or subunits per partner or assembly.

B1: HU-A (F79W mutant of HU-A) (natural protein, E. coli)
chain: MNKTQLIDVIAEKAELSKTQAKAALESTLAAITESLKEGDAVQLVGFGTFKVNHRAERTGRNPQTGKEIKIAAANVPAWVSGKALKDAVK
For B1, the “stoichiometry N” value in “SEC” turned out to be 2.

B2: 4WJ DNA (four-way junction, cruciform) (structured_DNA)
DNA 1: CCCTATAACCCCTGCATTGAATTCCAGTCTGATAA
DNA 2: GTAGTCGTGATAGGTGCAGGGGTTATAGGG
DNA 3: AACAGTAGCTCTTATTCGAGCTCGCGCCCTATCACGACTA
DNA 4: TTTATCAGACTGGAATTCAAGCGCGAGCTCGAATAAGAGCTACTGT
Consider B2, for which the binding result with HU-B and with HU-A was “binds” throughout.
